# The supplement of paper PMC12764529
# ± gives the half width of the 95% confidence interval.
# Tests used:
# [1] = folding stability dG unfold (combined trypsin and chymotrypsin); higher = more stable
# How it was run: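 Designed mini-proteins (under 80 residues, no cysteine) in a PA-tagged cDNA display construct were digested with trypsin and chymotrypsin. Each protease was used at 11 concentrations (threefold dilutions) plus a no-protease condition, followed by sequencing. K50 was inferred by Bayesian fitting of sequencing counts, and unfolding free energy was derived against a sequence-predicted unfolded-state K50 and a shared folded-state K50, per protease or combined. Only designs with AlphaFold2 dimer inter-PAE above 15 were kept.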
# [2] = folding stability dG unfold from trypsin proteolysis; higher = more stable
# Protocol: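 Folding stability of de novo designed mini-proteins (<80 aa, no Cys; designed by TrROS, TrMRF, ProteinMPNN and the joint model) was measured by cDNA display proteolysis with trypsin and chymotrypsin. Each protease was used at 11 concentrations in a threefold dilution series plus a no-protease condition. K50 was inferred by Bayesian fitting of sequencing counts, and dG unfold was derived against a sequence-predicted unfolded-state K50 (Tsuboyama et al. method). Sequences shown include variable-length N-terminal GS-type padding (SAGGSAGG...) inside a display construct carrying a PA tag. Rows were kept only if the AF2 dimer inter-PAE was >15, to exclude likely homo-oligomers.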
Sequence,folding stability dG unfold [1],folding stability dG unfold [2]
SAGGSAGGSGMEEAIEKAKKEILEKNPDLPPNAVVNEPILVKDPSTDEEYVIPVTFTIPENNLSAGGSAGGS [r12_591_JUSTAS],-0.61 ± 0.67 kcal/mol,-0.137 ± 0.063 kcal/mol
SAGGSAGGSAGGSGGSMEVSISEAPPEYLVVTVYDPATGKTTVRKVSPSEVKSLKYEGGSAGGSAGGSAGGS [r4_494_JUSTAS],< -1 kcal/mol,0.274 ± 0.053 kcal/mol
SSVITNKGSLTITKTTLPDGTVVITITDPNGGRTTTITIPADSDGEATVTPTGSGNAATSTIPVSSLKLSSA [r9_1071_JUSTAS],0.183 ± 0.21 kcal/mol,0.505 ± 0.096 kcal/mol
SAMTLTVPPSLSATDAAGNAIPPSLSIEVEKVTPLPETGKVVAEVKITDPETGETTTRPLTITLPPGEASAG [r14_258_JUSTAS],0.506 ± 0.19 kcal/mol,0.827 ± 0.048 kcal/mol
SAGGSLPADAEVTEVVEDPSKGVVTVKVTVRDSEGKVVEERTVVTPVEPVPPLSPENLKKNLLLTLLSAGGS [r16_697_JUSTAS],-0.741 ± 0.94 kcal/mol,0.249 ± 0.12 kcal/mol
SAGGSAGGSAGGSMGPVPVWITIKIPDKNGKPKRKIEIPMEGPNMTPSEIRKQAKPFIKSAGGSAGGSAGGS [r4_375_TrROS],< -1 kcal/mol,-0.281 ± 0.49 kcal/mol
SAGGSAGGSAGGSSVPADTVVELEFKDEKGEPLLITVRVTTKDSGVDRTVLEVRPPELLSAGGSAGGSAGGS [r10_744_JUSTAS],-0.424 ± 0.17 kcal/mol,0.00915 ± 0.05 kcal/mol
SAGGSAGGSADIELLGESVDPATGRSSKTFQAPGKIIVETTAPDGTKTTSVVDPNSNVTIPLSAGGSAGGSA [r18_230_JUSTAS],< -1 kcal/mol,-0.522 ± 0.11 kcal/mol
SAGGSAGGSSDTRTIPIPIDGYPVRISIDMNGSQTIEFPNPENKDDLKDLIPPGYNITEIEPWSAGGSAGGS [r12_9_TrROS],< -1 kcal/mol,-0.999 ± 0.36 kcal/mol
SAGGSAGGSAGGKVRVETDPERGYYKVKIRNPNNGRKIKVPVPMDDPKKAKKQAKELAKSAGGSAGGSAGGS [r10_1117_TrROS],< -1 kcal/mol,-0.863 ± 0.5 kcal/mol
SKMKIKIEITEVYPEGKTIVVKAEIEIDGKTIEMEMTIKLPNGEEYRIRMRFVRRKDGRLEMEIEVEKLPSA [r9_255_TrROS_Hall],> 6 kcal/mol,5.33 ± 0.51 kcal/mol
SAGGSAGGSAGSKEKLEEEAKAKGRPVTPLPDGTLKVETVDPNKGTASTTVIDPETAEKLSAGGSAGGSAGG [r11_994_JUSTAS],< -1 kcal/mol,-0.626 ± 0.058 kcal/mol
KTIEIMIPMEQMRNNKPIPADQFLKELAQEFGGPNVKPKVEPMPDNMMKATITLPNGRKIEITDPGAIKIKS [r1_168_TrROS],< -1 kcal/mol,-0.43 ± 0.57 kcal/mol
SAGGSAGGPPDDVEPEEFTFRFGDKPIKVEILRVNPDNNNIMIKHESNGKPKTMMFPPEDLEKLSAGGSAGG [r6_421_TrROS],-0.0461 ± 0.25 kcal/mol,-0.129 ± 0.29 kcal/mol
SPIVTDLPPKEATRVEVEALVEELEAKGEPPREVVVYDPSRGVPLATIPVTSREELLAAVEAGRPFRVLLSA [r9_718_JUSTAS],< -1 kcal/mol,-0.697 ± 0.31 kcal/mol
SAGGSAGGSAGNIAERLQEAFPDYGIEVTDITPNGSITVTSRGPPGHRKKIQKAVKELLNSAGGSAGGSAGG [r11_418_TrROS],< -1 kcal/mol,-0.879 ± 0.57 kcal/mol
SAGGSAGGSSPEIPLPPEIAEEIEVPGSGTTVLLHPSTGLVLYKPPPEELAVGRYDPSTGVLESAGGSAGGS [r12_420_JUSTAS],0.475 ± 0.15 kcal/mol,0.985 ± 0.051 kcal/mol
SAGGSAGGSAGGDPVTVLSIKPEPGKLTVTTNTRADGSTTTTTVSPENPPNIKPGEPLSSAGGSAGGSAGGS [r10_834_JUSTAS],0.109 ± 0.18 kcal/mol,0.552 ± 0.04 kcal/mol
SAGGSAGGPVTVVPVVTPADVPVLTTPGGAPARPASRPDLVRPVASTVTVTITPAPAAPTVTVLSAGGSAGG [r6_537_JUSTAS],0.135 ± 0.12 kcal/mol,0.857 ± 0.038 kcal/mol
SAGGKVEIYNPNGQWKEITPEDLEGLKPGTIWQMPNGPVMIEIPGNDETIPIPMDSPNDIKDAIKDALSAGG [r13_962_TrROS],-0.183 ± 0.18 kcal/mol,0.246 ± 0.066 kcal/mol
SAGGSAGGSAGTVIYIDPETDMARVLVPDADGVLVDERAVPPDQLPDVLSQGNFTVVPAPSAGGSAGGSAGG [r11_159_TrMRF],-0.943 ± 0.84 kcal/mol,-0.327 ± 0.36 kcal/mol
SAGGSAGGSMVLIIVPPSKPELAEEKAKELAEKGEIKEYEIKTVSSEEEAEKLAKNYEKVILESAGGSAGGS [r12_679_JUSTAS],-0.324 ± 0.28 kcal/mol,-0.171 ± 0.083 kcal/mol
SAGGSRQVIEWEFKDPKNGKPFEISIEYDEENGVPMVEIRDRNGEPNAVVPVPPDNADEALEKFGISAGGSA [r2_115_TrROS],< -1 kcal/mol,-0.903 ± 0.46 kcal/mol
